Measured values reported in US8524444.

T1: polypeptide 4.3, FITC(Aha)STPRSSANMK (V→R)
T1 chain: STPRSSANMK

T2: polypeptide 4.2, FITC(Aha)STPFSSANMK (V→F)
T2 chain: STPFSSANMK

T3: polypeptide 4.5, FITC(Aha)STPVSRANMK (S→R)
T3 chain: STPVSRANMK

T4: polypeptide 4.4, FITC(Aha)STPVSFANMK (S→F)
T4 chain: STPVSFANMK

T5: polypeptide 4.1, FITC(Aha)STPVSSANMK (wt CK2-derived peptide)
T5 chain: STPVSSANMK

T6: polypeptide 4.6, FITC(Aha)STPVSSANMK(DEAC), unglycosylated
T6 chain: STPVSSANMK

T7: polypeptide 4.8, FITC(Aha)STPVSRANMK(DEAC), unglycosylated
T7 chain: STPVSRANMK


Key:
[1] = molecular target: T1, polypeptide 4.3, FITC(Aha)STPRSSANMK …
[2] = molecular target: T2, polypeptide 4.2, FITC(Aha)STPFSSANMK …
[3] = molecular target: T3, polypeptide 4.5, FITC(Aha)STPVSRANMK …
[4] = molecular target: T4, polypeptide 4.4, FITC(Aha)STPVSFANMK …
[5] = molecular target: T5, polypeptide 4.1, FITC(Aha)STPVSSANMK …
[6] = molecular target: T6, polypeptide 4.6, …
[7] = molecular target: T7, polypeptide 4.8, …

Protein | Relative rate of glycosylation [1] | Relative rate of glycosylation [2] | Relative rate of glycosylation [3] | Relative rate of glycosylation [4] | Relative rate of glycosylation [5] | rate of proteolysis, unglycosylated against glycosylated polypeptide [6] | rate of proteolysis, unglycosylated against glycosylated polypeptide [7]
O-Linked N-acetylglucosaminyltransferase (OGT) (protein) MHYKEAIRISPTFADAYSNMGNTLKEMQDVQGALQCYTRAIQINPAFADAHSNLASIHKDSGNIPEAIASYRTALKLKPDFPDAYCNLAHCLQIVCDWTDYDERMKKLVSIVADQLEKNRLPSVHPHHSMLYPLSHGFRKAIAERHGNLCLDKINVLHKPPYEHPKDLKLSDGRLRVGYVSSDFGNHPTSHLMQSIPGMHNPDKFEVFCYALSPDDGTNFRVKVMAEANHFIDLSQIPCNGKAADRIHQDGIHILVNMNGYTKGARNELFALRPAPIQAMWLGYPGTSGALFMDYIITDQETSPAEVAEQYSEKLAYMPHTFFIGDHANMFPHLKKKAVIDFKSNGHIYDNRIVLNGIDLKAFLDSLPDVKIVKMKCPDGGDNADSSNTALNMPVIPMNTIAEAVIEMINRGQIQITINGFSISNGLATTQINNKAATGEEVPRTIIVTTRSQYGLPEDAIVYCNFNQLYKIDPSTLQMWANILKRVPNSVLWLLRFPAVGEPNIQQYAQNMGLPQNRIIFSPVAPKEEHVRRGQLADVCLDTPLCNGHTTGMDVLWAGTPMVTMPGETLASRVAASQLTCLGCLELIAKNRQEYEDIAVKLGTDLEYLKKVRGKVWKQRISSPLFNTKQYTMELERLYLQMWEHYAAGNKPDHMIKPVEVTESA | 0 | 0.15 | 0.7 | 0.4 | 1 |  | 
Proteinase K (protein) AAQTNAPWGLARISSTSPGTSTYYYDESAGQGSCVYVIDTGIEASHPEFEGRAQMVKTYYYSSRDGNGHGTHCAGTVGSRTYGVAKKTQLFGVKVLDDNGSGQYSTIIAGMDFVASDKNNRNCPKGVVASLSLGGGYSSSVNSAAARLQSSGVMVAVAAGNNNADARNYSPASEPSVCTVGASDRYDRRSSFSNYGSVLDIFGPGTSILSTWIGGSTRSISGTSMATPHVAGLAAYLMTLGKTTAASACRYIADTANKGDLSNIPFGTVNLLAYNNYQA |  |  |  |  |  | ˜100-500 times faster | ˜100-500 times faster
